In patent US20200230249A1 (UREKA SARL, published 2020):
Numbered stars: 1 amine (or outer) side, 2 acyl side, 3 side chain; on linkers, the order of the positions; unused ones are H or OH. Square brackets hold non-standard residues; d marks the D form. Ends that are not written are not given here. A^u = urea/ureido (oligourea) residue with alanine side chain, C[C@@H](CNC(=O)[*:2])N[*:1]; Au = A^u, ureido (oligourea) alanine residue, C[C@@H](CNC(=O)[*:2])N[*:1]; D^uα = urea/ureido residue with aspartic acid side chain; E^u = urea/ureido residue with glutamic acid side chain; Y^u = urea/ureido residue with tyrosine side chain

B1: GG2[A^UA^UA^U]^24-27 (peptide)
peptide: HGEGTFTSDVSSYLEGQAAKEFIXXXKGRG
modifications: ureido (oligourea) residues A^u A^u A^u at positions 24-26 of the hybrid, replacing residues 24-27 of GLP-1-G2; C-terminal amide
B2: GG2[A^UA^UA^U]^23-26 (peptide)
peptide: HGEGTFTSDVSSYLEGQAAKEF[A^u][A^u][A^u]VKGRG-NH2
modifications: N-terminus assumed
SMILES: CC(C)C[C@H](NC(=O)[C@H](Cc1ccc(O)cc1)NC(=O)[C@H](CO)NC(=O)[C@H](CO)NC(=O)[C@@H](NC(=O)[C@H](CC(=O)O)NC(=O)[C@H](CO)NC(=O)[C@@H](NC(=O)[C@H](Cc1ccccc1)NC(=O)[C@@H](NC(=O)CNC(=O)[C@H](CCC(=O)O)NC(=O)CNC(=O)[C@@H](N)Cc1c[nH]cn1)[C@@H](C)O)[C@@H](C)O)C(C)C)C(=O)N[C@@H](CCC(=O)O)C(=O)NCC(=O)N[C@@H](CCC(N)=O)C(=O)N[C@@H](C)C(=O)N[C@@H](C)C(=O)N[C@@H](CCCCN)C(=O)N[C@@H](CCC(=O)O)C(=O)N[C@@H](Cc1ccccc1)C(=O)N[C@@H](C)CNC(=O)N[C@@H](C)CNC(=O)N[C@@H](C)CNC(=O)N[C@H](C(=O)N[C@@H](CCCCN)C(=O)NCC(=O)N[C@@H](CCCNC(=N)N)C(=O)NCC(N)=O)C(C)C
B3: GG2[A^UA^UA^U]^17-20 (peptide)
peptide: HGEGTFTSDVSSYLEG[A^u][A^u][A^u]EFIAWLVKGRG-NH2
modifications: N-terminus assumed
SMILES: CC[C@H](C)[C@H](NC(=O)[C@H](Cc1ccccc1)NC(=O)[C@H](CCC(=O)O)NC(=O)NC[C@H](C)NC(=O)NC[C@H](C)NC(=O)NC[C@H](C)NC(=O)CNC(=O)[C@H](CCC(=O)O)NC(=O)[C@H](CC(C)C)NC(=O)[C@H](Cc1ccc(O)cc1)NC(=O)[C@H](CO)NC(=O)[C@H](CO)NC(=O)[C@@H](NC(=O)[C@H](CC(=O)O)NC(=O)[C@H](CO)NC(=O)[C@@H](NC(=O)[C@H](Cc1ccccc1)NC(=O)[C@@H](NC(=O)CNC(=O)[C@H](CCC(=O)O)NC(=O)CNC(=O)[C@@H](N)Cc1c[nH]cn1)[C@@H](C)O)[C@@H](C)O)C(C)C)C(=O)N[C@@H](C)C(=O)N[C@@H](Cc1c[nH]c2ccccc12)C(=O)N[C@@H](CC(C)C)C(=O)N[C@H](C(=O)N[C@@H](CCCCN)C(=O)NCC(=O)N[C@@H](CCCNC(=N)N)C(=O)NCC(N)=O)C(C)C
B4: GG2[A^UA^UA^U]^19-22 (peptide)
peptide: HGEGTFTSDVSSYLEGQA[A^u][A^u][A^u]IAWLVKGRG-NH2
modifications: N-terminus assumed
SMILES: CC[C@H](C)[C@H](NC(=O)NC[C@H](C)NC(=O)NC[C@H](C)NC(=O)NC[C@H](C)NC(=O)[C@H](C)NC(=O)[C@H](CCC(N)=O)NC(=O)CNC(=O)[C@H](CCC(=O)O)NC(=O)[C@H](CC(C)C)NC(=O)[C@H](Cc1ccc(O)cc1)NC(=O)[C@H](CO)NC(=O)[C@H](CO)NC(=O)[C@@H](NC(=O)[C@H](CC(=O)O)NC(=O)[C@H](CO)NC(=O)[C@@H](NC(=O)[C@H](Cc1ccccc1)NC(=O)[C@@H](NC(=O)CNC(=O)[C@H](CCC(=O)O)NC(=O)CNC(=O)[C@@H](N)Cc1c[nH]cn1)[C@@H](C)O)[C@@H](C)O)C(C)C)C(=O)N[C@@H](C)C(=O)N[C@@H](Cc1c[nH]c2ccccc12)C(=O)N[C@@H](CC(C)C)C(=O)N[C@H](C(=O)N[C@@H](CCCCN)C(=O)NCC(=O)N[C@@H](CCCNC(=N)N)C(=O)NCC(N)=O)C(C)C
B5: GG2[F^UαI^UA^U]^22-25 (peptide)
peptide: HGEGTFTSDVSSYLEGQAAKEXXXLVKGRG
modifications: ureido (oligourea) residues F^uα I^u A^u at positions 22-24 of the hybrid, replacing residues 22-25 of GLP-1-G2; C-terminal amide

target: T1, mouse GLP-1 receptor endogenously expressed in βTC6 cells (mouse, UniProt O35659 22-463); assay: cell-based or functional assay
T1 sequence (looked up): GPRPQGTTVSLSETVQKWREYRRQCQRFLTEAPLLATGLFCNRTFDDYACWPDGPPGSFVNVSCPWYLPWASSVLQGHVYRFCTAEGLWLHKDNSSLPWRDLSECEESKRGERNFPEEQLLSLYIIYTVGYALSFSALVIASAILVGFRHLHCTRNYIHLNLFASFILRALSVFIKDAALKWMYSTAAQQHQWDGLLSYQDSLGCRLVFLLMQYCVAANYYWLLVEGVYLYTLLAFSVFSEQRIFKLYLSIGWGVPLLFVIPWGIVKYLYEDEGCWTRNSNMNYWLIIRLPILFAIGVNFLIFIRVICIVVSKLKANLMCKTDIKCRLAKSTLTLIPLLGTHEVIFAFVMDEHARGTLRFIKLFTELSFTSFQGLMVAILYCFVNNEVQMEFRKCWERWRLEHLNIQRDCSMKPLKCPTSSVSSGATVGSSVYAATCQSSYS

Compared with HGEGTFTSDVSSY[Y^u][E^u][A^u]AAKEFIAWLVKGRG-NH2 [GG2[Y^UE^UA^U]^14-17], H-HGEGTFTSDVSSYL[Au][Au][Au]AKEFIAWLVKGRG-NH2 (also: oligourea (urea) backbone at A^u units) [GG2[A^UA^UA^U]^15-18] is 680-fold higher in “EC50 (nM), cAMP production functional assay” value (“EC50 (nM)” below): 0.18 nM for the first, 123 nM for the second.

Going from HGEGTFTSDVSSY[Y^u][E^u][A^u][A^u][A^u][A^u]FIAWLVKGRG-NH2 [GG2[Y^uE^uA^uA^uA^uA^u]^14-21] to HGEGTFTSDV[A^u][Y^u][A^u]EGQAAKEFIAWLVKGRG-NH2 [GG2[A^UY^UA^U]^11-14], the “EC50 (nM)” value falls from 3.4 nM to 1.6 nM (2.1-fold).

Compared with H-HGEGTFTSDVSSYLEGQAAKEFIAWLVKGRG-NH2 [GLP-1-G^2 (GG2)], B1 is higher in “EC50 (nM)” value: 0.24 nM for the first, over 10000 nM for the second.

First: HGEGTFTS[D^uα][A^u][A^u]YLEGQAAKEFIAWLVKGRG-NH2 [GG2[D^UαA^UA^U]^9-12]
Second: H-HGEGTFTSDVS[Au][Au][Au]GQAAKEFIAWLVKGRG-NH2 (also: oligourea (urea) backbone at A^u units) [GG2[A^UA^UA^U]^12-15]
The “EC50 (nM)” value of the first is lower: 13 nM for the first, over 10000 nM for the second.

Compared with B2, B3 is 2.5-fold lower in “EC50 (nM)” value: 3930 nM for the first, 1600 nM for the second.

Going from B4 to HGEGTFTSDVSSYL[E^u][A^u][A^u]AKEFIAWLVKGRG-NH2 [GG2[E^UA^UA^U]^15-18], the “EC50 (nM)” value falls from over 10000 nM to 1.9 nM.

Compared with HGEGTFTSDVSSYLEGQ[A^u][A^u][A^u]FIAWLVKGRG-NH2 [GG2[A^UA^UA^U]^18-21], H-HGEGTFTSDVSSYLE[Au][Au][Au]KEFIAWLVKGRG-NH2 (also: oligourea (urea) backbone at A^u units) [GG2[A^UA^UA^U]^16-19] is 59-fold higher in “EC50 (nM)” value: 4.1 nM for the first, 240 nM for the second.

First: H-HGEGTFTSD[Au][Au][Au]LEGQAAKEFIAWLVKGRG-NH2 (also: oligourea (urea) backbone at A^u units) [GG2[A^UA^UA^U]^10-13]
Second: HGEGTFTSDVSS[Au][Au][Au]QAAKEFIAWLVKGRG-NH2 (also: oligourea (urea) backbone at A^u units) [GG2[A^UA^UA^U]^13-16]
The “EC50 (nM)” value of the first is lower: 650 nM for the first, over 10000 nM for the second.

Going from H-HGEGTFTSDVSSY[Au][Au][Au]AAKEFIAWLVKGRG-NH2 (also: oligourea (urea) backbone at A^u units) [GG2[A^UA^UA^U]^14-17] to B5, the “EC50 (nM)” value falls from 353 nM to 62 nM (5.7-fold).

For HGEGTFTSDV[Au][Au][Au]EGQAAKEFIAWLVKGRG-NH2 (also: oligourea (urea) backbone at A^u units) [GG2[A^UA^UA^U]^11-14], the “EC50 (nM)” value was 97 nM.

Going from HGEGTFTSDVSSY[Y^u][E^u][A^u]AAKEFIAWLVKGRG-NH2 [GG2[Y^UE^UA^U]^14-17] to H-HGEGTFTSDVSSYL[Au][Au][Au]AKEFIAWLVKGRG-NH2 (also: oligourea (urea) backbone at A^u units) [GG2[A^UA^UA^U]^15-18], the “Potency (%) compared to GLP-1-G^2, cAMP production” value (“Potency (%)” below) falls from 135% to 0.2%.

Going from HGEGTFTSDVSSY[Y^u][E^u][A^u][A^u][A^u][A^u]FIAWLVKGRG-NH2 [GG2[Y^uE^uA^uA^uA^uA^u]^14-21] to HGEGTFTSDV[A^u][Y^u][A^u]EGQAAKEFIAWLVKGRG-NH2 [GG2[A^UY^UA^U]^11-14], the “Potency (%)” value rises from 7% to 15%.

Compared with H-HGEGTFTSDVSSYLEGQAAKEFIAWLVKGRG-NH2 [GLP-1-G^2 (GG2)], B1 is lower in “Potency (%)” value: 100% for the first, under 0.01% for the second.

Compared with HGEGTFTS[D^uα][A^u][A^u]YLEGQAAKEFIAWLVKGRG-NH2 [GG2[D^UαA^UA^U]^9-12], H-HGEGTFTSDVS[Au][Au][Au]GQAAKEFIAWLVKGRG-NH2 (also: oligourea (urea) backbone at A^u units) [GG2[A^UA^UA^U]^12-15] is lower in “Potency (%)” value: 2% for the first, under 0.01% for the second.

B2 and B3 are the same in “Potency (%)” value: 0.01% for the first, 0.01% for the second.

Compared with B4, HGEGTFTSDVSSYL[E^u][A^u][A^u]AKEFIAWLVKGRG-NH2 [GG2[E^UA^UA^U]^15-18] is higher in “Potency (%)” value: under 0.01% for the first, 13% for the second.

Going from HGEGTFTSDVSSYLEGQ[A^u][A^u][A^u]FIAWLVKGRG-NH2 [GG2[A^UA^UA^U]^18-21] to H-HGEGTFTSDVSSYLE[Au][Au][Au]KEFIAWLVKGRG-NH2 (also: oligourea (urea) backbone at A^u units) [GG2[A^UA^UA^U]^16-19], the “Potency (%)” value falls from 6% to 0.1%.

Going from H-HGEGTFTSD[Au][Au][Au]LEGQAAKEFIAWLVKGRG-NH2 (also: oligourea (urea) backbone at A^u units) [GG2[A^UA^UA^U]^10-13] to HGEGTFTSDVSS[Au][Au][Au]QAAKEFIAWLVKGRG-NH2 (also: oligourea (urea) backbone at A^u units) [GG2[A^UA^UA^U]^13-16], the “Potency (%)” value falls from 0.04% to under 0.01%.

Compared with H-HGEGTFTSDVSSY[Au][Au][Au]AAKEFIAWLVKGRG-NH2 (also: oligourea (urea) backbone at A^u units) [GG2[A^UA^UA^U]^14-17], B5 is higher in “Potency (%)” value: 0.07% for the first, 0.4% for the second.

For HGEGTFTSDV[Au][Au][Au]EGQAAKEFIAWLVKGRG-NH2 (also: oligourea (urea) backbone at A^u units) [GG2[A^UA^UA^U]^11-14], the “Potency (%)” value was 0.2%.
